B1: KLHL12 (parent)
chain: REESLPNLLQYVRMPLLTPRYITD
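Also: lentivirally expressed fusions sorted by FACS into six bins by GFP to DsRed ratio, PSI derived from sequencing read proportions per bin multiplied by bin number.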

Variants of: B1
Assay: protein stability index of a GFP-peptide fusion (GPS, HEK-293T) (PSI 1-6); higher = more stable
Details: c terminus: a fixed tail appended
In the case of REESLPNLLQYVRMPLQTPRYITD, the protein stability index is reported as 2.86. Work on REESLPNLLQYVRMPLRTPRYITD yielded a protein stability index of 3.48. REESLPNLLQYVRMPLGTPRYITD gave a protein stability index of 2.77. For REESLPNLLQYVRMPLSTPRYITD, the protein stability index was 2.87. REESLPNLLQYVRMPLPTPRYITD showed a protein stability index of 2.54. In the case of REESLPNLLQYVRMPLDTPRYITD, the protein stability index is reported as 3.43. Variant REESLPNLLQYVRMPLYTPRYITD has a protein stability index of 2.98. In the case of REESLPNLLQYVRMPLETPRYITD, the protein stability index is reported as 3.45. With REESLPNLLQYVRMPLVTPRYITD the protein stability index was 3.56. In the case of REESLPNLLQYVRMPLTTPRYITD, the protein stability index is reported as 2.54. For REESLPNLLQYVRMPLITPRYITD, the protein stability index was 2.54. In the case of REESLPNLLQYVRMPLNTPRYITD, the protein stability index is reported as 3.42. REESLPNLLQYVRMPLHTPRYITD gave a protein stability index of 2.83. Variant REESLPNLLQYVRMPLFTPRYITD has a protein stability index of 2.16. REESLPNLLQYVRMPLWTPRYITD showed a protein stability index of 2.33. Work on REESLPNLLQYVRMPLKTPRYITD yielded a protein stability index of 3.51. Work on REESLPNLLQYVRMPLATPRYITD yielded a protein stability index of 3.51. REESLPNLLQYVRMPLCTPRYITD gave a protein stability index of 2.85. REESLPNLLQYVRMPLLTPRIITD gave a protein stability index of 2.84. For REESLPNLLQYVRMPLLTPRFITD, the protein stability index was 2.22. Work on REESLPNLLQYVRMPLLTPRKITD yielded a protein stability index of 3.93. In the case of REESLPNLLQYVRMPLLTPRLITD, the protein stability index is reported as 2.62. Variant REESLPNLLQYVRMPLLTPRNITD has a protein stability index of 3.25. Work on REESLPNLLQYVRMPLLTPRHITD yielded a protein stability index of 3.08. REESLPNLLQYVRMPLLTPREITD showed a protein stability index of 3.17. For REESLPNLLQYVRMPLLTPRQITD, the protein stability index was 3.85. Work on REESLPNLLQYVRMPLLTPRGITD yielded a protein stability index of 3.4. REESLPNLLQYVRMPLLTPRRITD showed a protein stability index of 3.24. In the case of REESLPNLLQYVRMPLLTPRSITD, the protein stability index is reported as 3.37. REESLPNLLQYVRMPLLTPRMITD showed a protein stability index of 2.97. For REESLPNLLQYVRMPLLTPRVITD, the protein stability index was 2.72. Work on REESLPNLLQYVRMPLLTPRWITD yielded a protein stability index of 1.79. In the case of REESLPNLLQYVRMPLLTPRTITD, the protein stability index is reported as 3.26. For REESLPNLLQYVRMPLLTPRDITD, the protein stability index was 3.69. For REESLPNLLQYVRMPLLTPRCITD, the protein stability index was 2.95. For REESLPNLLQYVRMPLLTPRAITD, the protein stability index was 3.59. REESLPNLLQYVRMPLLTPRPITD gave a protein stability index of 3.15. With REESLPNLLQYVRMPLLTPSYITD the protein stability index was 2.72. Work on REESLPNLLQYVRMPLLTPPYITD yielded a protein stability index of 2.21. With REESLPNLLQYVRMPLLTPAYITD the protein stability index was 2.19. REESLPNLLQYVRMPLLTPVYITD showed a protein stability index of 1.92. REESLPNLLQYVRMPLLTPKYITD gave a protein stability index of 3.48. REESLPNLLQYVRMPLLTPIYITD gave a protein stability index of 2.68. For REESLPNLLQYVRMPLLTPWYITD, the protein stability index was 1.22. REESLPNLLQYVRMPLLTPDYITD showed a protein stability index of 3.03. With REESLPNLLQYVRMPLLTPMYITD the protein stability index was 1.97. With REESLPNLLQYVRMPLLTPHYITD the protein stability index was 2.56. REESLPNLLQYVRMPLLTPLYITD gave a protein stability index of 2.55. REESLPNLLQYVRMPLLTPEYITD gave a protein stability index of 2.7. REESLPNLLQYVRMPLLTPQYITD showed a protein stability index of 2.54. REESLPNLLQYVRMPLLTPCYITD showed a protein stability index of 2.12. Work on REESLPNLLQYVRMPLLTPYYITD yielded a protein stability index of 1.67. Variant REESLPNLLQYVRMPLLTPGYITD has a protein stability index of 3.29. Work on REESLPNLLQYVRMPLLTPTYITD yielded a protein stability index of 2.15. With REESLPNLLQYVRMPLLTPFYITD the protein stability index was 1.95. With REESLPNLLQYVRMPLLTPNYITD the protein stability index was 2.78. Variant REESLPNLLQYVRMPLLTPRYITE has a protein stability index of 2.26. Variant REESLPNLLQYVRMPLLTPRYITY has a protein stability index of 2.22. With REESLPNLLQYVRMPLLTPRYITT the protein stability index was 2.17. REESLPNLLQYVRMPLLTPRYITW showed a protein stability index of 2.11. REESLPNLLQYVRMPLLTPRYITV showed a protein stability index of 1.57. Variant REESLPNLLQYVRMPLLTPRYITR has a protein stability index of 2.75. In the case of REESLPNLLQYVRMPLLTPRYITQ, the protein stability index is reported as 2.5. Variant REESLPNLLQYVRMPLLTPRYITG has a protein stability index of 2.28. With REESLPNLLQYVRMPLLTPRYITL the protein stability index was 1.71. Work on REESLPNLLQYVRMPLLTPRYITP yielded a protein stability index of 2.04. With REESLPNLLQYVRMPLLTPRYITH the protein stability index was 2.06. In the case of REESLPNLLQYVRMPLLTPRYITI, the protein stability index is reported as 3.11. For REESLPNLLQYVRMPLLTPRYITN, the protein stability index was 2.35. REESLPNLLQYVRMPLLTPRYITS gave a protein stability index of 2.01. Work on REESLPNLLQYVRMPLLTPRYITA yielded a protein stability index of 1.84. With REESLPNLLQYVRMPLLTPRYITM the protein stability index was 1.6. Work on REESLPNLLQYVRMPLLTPRYITF yielded a protein stability index of 2.04. REESLPNLLQYVRMPLLTPRYITK showed a protein stability index of 2.64. Variant REESLPNLLQYVRMPLLTPRYITC has a protein stability index of 1.81. REESLPNLLQYVRMPLLTQRYITD showed a protein stability index of 2.18. Variant REESLPNLLQYVRMPLLTFRYITD has a protein stability index of 2.17. Work on REESLPNLLQYVRMPLLTSRYITD yielded a protein stability index of 2.14. With REESLPNLLQYVRMPLLTYRYITD the protein stability index was 1.4. For REESLPNLLQYVRMPLLTTRYITD, the protein stability index was 2.46. With REESLPNLLQYVRMPLLTWRYITD the protein stability index was 2.41. REESLPNLLQYVRMPLLTCRYITD gave a protein stability index of 2.28. In the case of REESLPNLLQYVRMPLLTKRYITD, the protein stability index is reported as 2.41. Variant REESLPNLLQYVRMPLLTNRYITD has a protein stability index of 2.48. With REESLPNLLQYVRMPLLTARYITD the protein stability index was 2.74. For REESLPNLLQYVRMPLLTERYITD, the protein stability index was 3.03. Work on REESLPNLLQYVRMPLLTLRYITD yielded a protein stability index of 2.48. Variant REESLPNLLQYVRMPLLTRRYITD has a protein stability index of 2.39. Variant REESLPNLLQYVRMPLLTMRYITD has a protein stability index of 2.02. REESLPNLLQYVRMPLLTHRYITD showed a protein stability index of 1.47. REESLPNLLQYVRMPLLTDRYITD gave a protein stability index of 2.9. With REESLPNLLQYVRMPLLTGRYITD the protein stability index was 2.75. REESLPNLLQYVRMPLLTIRYITD showed a protein stability index of 2.12. With REESLPNLLQYVRMPLLTVRYITD the protein stability index was 2.22.

— the supplement of paper PMC10567573
